From patent US20080241129A1, “ADIPOCYTE SECRETED PROTEIN CCDC80 IS A POTENT STIMULATOR OF BONE FORMATION” (Wyeth, priority 2007, published 2008)

System: neonatal mouse calvaria
Assay: Neonatal calvaria organ culture assay (histomorphometry)
Format: cell-based
Method: Applicants used mouse neonatal calvaria organ culture assay to examine possible roles for Ccdc80 in bone formation/resorption. Neonatal mouse calvaria were prepared from 4-day-old pups as described previously (Traianedes K et al., Endocrinology 139:3178-84 (1998); Mundy G et al., Science 286:1946-49 (1999)). Briefly, calvaria were excised and cut in half along the sagittal suture. Each half calvaria was placed with the concave surface downward on a stainless steel grid (Small Parts, Inc., Miami, Fla.) in a 12-well tissue culture dish (Becton Dickinson, Oxnard, Calif.). Calvaria were pre-incubated overnight in serum-free BGJ medium with 0.1% BSA. Each well contained 1 ml of BGJ medium. After pre-incubation, calvaria were incubated for 7 days in BGJ medium containing 1% FBS without or with test samples. Calvaria in 12-well plates were incubated in a humidified atmosphere of 95% air and 5% CO2. Fresh test samples were added at the time of medium change on day 4.
After organ culture, calvaria were fixed in 10% neutral phosphate-buffered formaldehyde at room temperature for 72 hours, then decalcified for 5-6 hours in 10% EDTA in PBS. Calvaria in each group were embedded in parallel in the same paraffin block, and 4 μm sections were stained with hematoxylin-eosin. Consistent bone areas (200 μm away from frontal sutures) were selected for histomorphometric analysis. In brief, a 200 μm square grid was placed on each calvaria, and the number of osteoblasts and total bone area were determined with the Osteomeasure System (Osteometrics Inc., Atlanta, Ga.). All cells on the bone surface were counted as osteoblasts.
For this experiment, calvaria were prepared from 4-day old neonatal pups. Calvaria then were incubated for 7 days without (Control), or with serial dilutions of FLAG-purified Ccdc80 protein as shown in FIG. 4. Medium was changed on day 4. After organ culture, calvaria were fixed in 10% neutral phosphate buffered formaldehyde, embedded in paraffin block, sectioned at 4 μm, and stained with hematoxylin and Eosin for histomorphoemetric analysis.

[1] = 1% FLAG-purified Ccdc80 protein, 7 days

B1: FLAG-purified Ccdc80 protein: C-terminally FLAG-tagged human Ccdc80 purified from conditioned medium using anti-FLAG M2 affinity beads (protein)
chain: EPHPHATIRGSHGGRKVPLVSPDSSRPARFLRHTGRSRGIERSTLEEPNLQPLQRRRSVPVLRLARPTEPPARSDINGAAVRPEQRPAARGSPREMIRDEGSSARSRMLRFPSGSSSPNILASFAGKNRVWVISAPHASEGYYRLMMSLLKDDVYCELAERHIQQIVLFHQAGEEGGKVRRITSEGQILEQPLDPSLIPKLMSFLKLEKGKFGMVLLKKTLQVEERYPYPVRLEAMYEVIDQGPIRRIEKIRQKGFVQKCKASGVEGQVVAEGNDGGGGAGRPSLGSEKKKEDPRRAQVPPTRESRVKVLRKLAATAPALPQPPSTPRATTLPPAPATTVTRSTSRAVTVAARPMTTTAFPTTQRPWTPSPSHRPPTTTEVITARRPSVSENLYPPSRKDQHRERPQTTRRPSKATSLESFTNAPPTTISEPSTRAAGPGRFRDNRMDRREHGHRDPNVVPGPPKPAKEKPPKKKAQDKILSNEYEEKYDLSRPTASQLEDELQVGNVPLKKAKESKKHEKLEKPEKEKKKKMKNENADKLLKSEKQMKKSEKKSKQEKEKSKKKKGGKTEQDGYQKPTNKHFTQSPKKSVADLLGSFEGKRRLLLITAPKAENNMYVQQRDEYLESFCKMATRKISVITIFGPVNNSTMKIDHFQLDNEKPMRVVDDEDLVDQRLISELRKEYGMTYNDFFMVLTDVDLRVKQYYEVPITMKSVFDLIDTFQSRIKDMEKQKKEGIVCKEDKKQSLENFLSRFRWRRRLLVISAPNDEDWAYSQQLSALSGQACNFGLRHITILKLLGVGEEVGGVLELFPINGSSVVEREDVPAHLVKDIRNYFQVSPEYFSMLLVGKDGNVKSWYPSPMWSMVIVYDLIDSMQLRRQEMAIQQSLGMRCPEDEYAGYGYHSYHQGYQDGYQDDYRHHESYHHGYPY
modifications: left off: small tags and cut ends
B1 was tested, and the “bone resorption (histologically)” value [1] was “enhanced”, the number of osteoblasts [1] was “not significantly altered” and the osteoblast activation [1] was “activated”. For the same molecule, the “increase in total bone area” value (1% FLAG-purified Ccdc80 protein, 7 days, P<0.0001) was 62%, the osteogenic activities (purified protein sample diluted as low as 0.01%, 7 days) was “clearly observed” and the “number of osteoblasts (summary)” value (summary statement) was “unaltered”. The “osteoblast activation (summary)” value (summary statement) was “activated osteoblasts”.
